Source: the supplement of paper PMC12764529
± gives the half width of the 95% confidence interval.

Tests used:
[1] = folding stability dG unfold (combined trypsin and chymotrypsin); higher = more stable
Procedure, shortened: (§1)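 How resistant each design was to proteolysis was captured as K50, inferred by Bayesian fitting of sequencing counts. Unfolding free energy was then derived relative to a sequence-predicted unfolded-state K50 and a shared folded-state K50, per protease or combined. Digestion used trypsin and chymotrypsin at 11 threefold-diluted concentrations plus a no-protease condition, on mini-proteins under 80 residues without cysteine in a PA-tagged cDNA display construct. Designs were kept only when AlphaFold2 dimer inter-PAE was above 15.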

[2] = folding stability dG unfold from trypsin proteolysis; higher = more stable
Procedure, shortened: as §1

[3] = folding stability dG unfold from chymotrypsin proteolysis; higher = more stable
Procedure, shortened: as §1

| Sequence | folding stability dG unfold [1] | folding stability dG unfold [2] | folding stability dG unfold [3] |
| --- | --- | --- | --- |
| SAGGSAGGSAMPVIELTIKVKTKEEAKKAAEELAKKLEEEFGLKVEVEYDEETKEVKVKIYPSAGGSAGGSA [r18_368_TrROS_Hall] | 2.07 ± 0.089 kcal/mol | 2.25 ± 0.12 kcal/mol | 1.79 ± 0.068 kcal/mol |
| SAGGSAKGPKTVTYEFKIKYGDKYYLIKVTVKLHEVKYDPKTKKYTLNLKPNDKLEIKVEIYELDDSAGGSA [r15_1040_TrMRF] | 3.7 ± 0.3 kcal/mol | 2.29 ± 0.26 kcal/mol | 4.09 ± 0.086 kcal/mol |
| SAGGSAGGSAMTPPEELKEKIAAEVSPDTTVTETFPEEPLVVKITRNPSGTITVEVVSPEELSAGGSAGGSA [r18_61_JUSTAS] | 0.546 ± 0.088 kcal/mol | -0.418 ± 0.11 kcal/mol | 0.906 ± 0.049 kcal/mol |
| SAGGIYRVEIEIPGGNTIEFMIPGATEEMAKEIANELAQHFNPGDIKIEVYPIPPVKVDPEDGKWKWSAGGS [r8_167_TrROS] | 1.13 ± 0.095 kcal/mol | 0.579 ± 0.039 kcal/mol | 1.41 ± 0.1 kcal/mol |
| SAGGMITEEEILELEKRIREAAEAGDPETVEEELERAKEALEEYKKKGNKELLKKVEEIVKRAEELIASAGG [r13_137_JUSTAS] | 3.35 ± 0.26 kcal/mol | 3.8 ± 0.2 kcal/mol | 2.7 ± 0.14 kcal/mol |
| SGSFASVTEDSLPDGGGYIVATEVSTGASRVYPPGTVVAEPAPADSTLVETLYDPATGEPLSTTTRTVAASA [r9_209_JUSTAS] | -0.0457 ± 0.11 kcal/mol | -0.712 ± 0.2 kcal/mol | 0.00381 ± 0.13 kcal/mol |
| SAGGSAGGSAGGMKYTIKVTTTYPDGTVTEYTFPSSVSKEEIIKELPSDVVDITFTETASSAGGSAGGSAGG [r7_288_JUSTAS] | 2.26 ± 0.04 kcal/mol | 2.17 ± 0.066 kcal/mol | 2.17 ± 0.026 kcal/mol |
| SAGGSAGGSAGGVTIVIGTDKDIPAEVIEKEVADELLKAGIPPDVKVNVVVVPIDPDALSAGGSAGGSAGGS [r10_746_TrMRF] | 1.11 ± 0.1 kcal/mol | 1.1 ± 0.042 kcal/mol | 1.17 ± 0.087 kcal/mol |
| SAPNYPFFVRIKLPGNGQEVEFPIESPEEADEMLDNFANHPHIKDIDIYRPDGEEVEIEIKIPPEALKQSAG [r14_747_TrROS] | 0.0333 ± 0.26 kcal/mol | -0.622 ± 0.3 kcal/mol | 0.119 ± 0.16 kcal/mol |
| SASTSSISTETESRKISSFTVGDKEYEIYENTTTTTLPDGSVVTTTTLSVKDPSSNVTKTLSSTTTFTPSAG [r14_195_JUSTAS] | 2.32 ± 0.12 kcal/mol | 2.09 ± 0.044 kcal/mol | 2.49 ± 0.03 kcal/mol |
| SAGGSAGGSAGGEVVVVPLPDGSYVVALPDGTVVVYNPETGRWEERRSEDVVIAPGRPDESAGGSAGGSAGG [r7_656_TrMRF] | 2.4 ± 0.03 kcal/mol | 2.09 ± 0.061 kcal/mol | 2.51 ± 0.031 kcal/mol |
| SAGGMHHLEIYRFEDRKLVVLHLEDKPVVIEVEPGLTEEEAAEKAIEALKEAFPDKEIVIDSVEVKEESAGG [r13_884_TrMRF] | 0.217 ± 0.11 kcal/mol | -0.0489 ± 0.064 kcal/mol | 0.41 ± 0.11 kcal/mol |
| SAGGSAGGSAGGSPYVQIRFEIPVWKFKPGGWEPVNPMPIPIWVPADDPPAAKDIAEEISAGGSAGGSAGGS [r4_153_TrROS] | 0.849 ± 0.09 kcal/mol | 0.724 ± 0.07 kcal/mol | 0.839 ± 0.18 kcal/mol |
| SMKITPLPGPEEVAEFPETGETITITRDPSTGLVTVTYNGPGTPVTATTDPAVGTVTVNTPDGKITIPLTSA [r9_541_JUSTAS] | 0.346 ± 0.072 kcal/mol | 0.669 ± 0.02 kcal/mol | -0.512 ± 0.22 kcal/mol |
| SAGGSAGGSHEIIIRVDSPEDAIEQAKSILRDHGIPEGFEPVPIEVLERDPNNGYYYVQIEVKSAGGSAGGS [r12_999_TrROS] | 0.178 ± 0.1 kcal/mol | 0.601 ± 0.026 kcal/mol | -0.453 ± 0.077 kcal/mol |
| SADPDEEVTLTLTLPASASPEEVEKVRDEIREAFESLGLEVDVKVEADPETGEVPVTVTLKKEALEKLGSAG [r14_602_TrMRF] | 1.73 ± 0.18 kcal/mol | 0.834 ± 0.043 kcal/mol | 1.91 ± 0.06 kcal/mol |
| SARIAEILRELGMEVSVENHPDGMNEITFKFPNGYKIQVHMSPNGIDVQIQPPEGERRTFSIDEIKDLLSAG [r14_578_TrROS] | 2.77 ± 0.081 kcal/mol | 2.23 ± 0.071 kcal/mol | 3.14 ± 0.046 kcal/mol |
| SAGGKTVTIKVTRPDGKELTIEFEEKDGKVTVRVFDKDGKLVKEIEVDSLEEALKALEEAGYEVEVVPSAGG [r13_315_TrROS_Hall] | 3.42 ± 0.2 kcal/mol | 3.49 ± 0.22 kcal/mol | 3.36 ± 0.15 kcal/mol |
| SAGGSAGGSAGGMRVYEFDSEEEAQAFAEELRAAEPDVREVTIERDPETGKYRVTVVAESAGGSAGGSAGGS [r10_544_JUSTAS] | 4.62 ± 0.14 kcal/mol | 4.24 ± 0.17 kcal/mol | 4.69 ± 0.091 kcal/mol |
| SEKLVIFVPPNMTVEEIVALAKKYPDKEIVIVMPPNMSEEQKERILKALRDAGLPEGVKVTIVEVEPEDLSA [r9_670_TrROS_Hall] | 3.85 ± 0.19 kcal/mol | 3.73 ± 0.095 kcal/mol | 3.81 ± 0.16 kcal/mol |
| SAGGSDDPAKDIDLDIPVVVLEEEEARELARELDKPIIFRLPDGRLRVFYPDGREEEFPLPKPEELSAGGSA [r2_34_TrMRF] | 2.96 ± 0.039 kcal/mol | 3.38 ± 0.066 kcal/mol | 2.65 ± 0.022 kcal/mol |

| Sequence | folding stability dG unfold [1] | folding stability dG unfold [2] | folding stability dG unfold [3] |
| --- | --- | --- | --- |
| SAGGSAGGSAPVPINITFPDGSVAVNGSPDVAYLYFPEKGTIYRIPIDPDTNIITIEEVFKVPSAGGSAGGS [r12_539_TrMRF] | 0.964 ± 0.05 kcal/mol | 0.744 ± 0.043 kcal/mol | 1.03 ± 0.067 kcal/mol |
| SAGGSAGGPKIRIEIEHYDNYIVISIRIPPGMPPGQEIKFEIGGYPVKVTYDPEDGWMTISFPASAGGSAGG [r6_267_TrROS] | 3.2 ± 0.14 kcal/mol | 3.24 ± 0.076 kcal/mol | 3.06 ± 0.082 kcal/mol |
| SAGGSAGGSAGGSPLKIKIVEVKEHKNPDGKPRRRIMMRFPNGRTLHIDMNGNLEIMPASAGGSAGGSAGGS [r4_111_TrROS] | 0.188 ± 0.22 kcal/mol | 0.0795 ± 0.19 kcal/mol | 0.176 ± 0.32 kcal/mol |
| SAGGGALSPEEALGKPVTALVEVGGKPYLATYTLKPTPDGWLLEVTVYDPSTGTPTTRTLDWDDVEFESAGG [r13_289_TrMRF] | 1.87 ± 0.04 kcal/mol | 1.09 ± 0.025 kcal/mol | 2.232 ± 0.022 kcal/mol |
| SAGGSPPPVEVTPITHINGGEPVPTRVETYPDGTVTVHITLPDGSSGTLPAEELAELLAAPGSLGDFSAGGS [r16_105_JUSTAS] | 0.805 ± 0.045 kcal/mol | 1.53 ± 0.071 kcal/mol | -0.455 ± 0.033 kcal/mol |
| SKVKVYIIKKDKVIPEIELDVSSVEEAVEKVLEYISKLPKNTPYLVRIEVEKYDPATGKKSYGTLLLPVGSA [r9_245_TrMRF] | 4.05 ± 0.1 kcal/mol | 2.76 ± 0.048 kcal/mol | 4.53 ± 0.095 kcal/mol |
| SAGSTAELVGHPDGVELRTELRGEELVFVLPAPKDVLVVAYDPATGALVLGVPVGDRVLVLVRPPPHPSAGG [r19_384_TrMRF] | 3.53 ± 0.23 kcal/mol | 2.54 ± 0.079 kcal/mol | 3.88 ± 0.099 kcal/mol |
| SAMVTIDYETLKELYEAGDPAKVEEILKKAYEEDPNKTITVIVPEDEKYKNLVLEAAKKMGLPITITGPSAG [r14_236_JUSTAS] | 2.83 ± 0.073 kcal/mol | 2.46 ± 0.068 kcal/mol | 3 ± 0.051 kcal/mol |
| SAGMTFEAEVKEKTIYIPEINNIIKIKIVNLKPPEGPIIPIIKIEFYVSENTTPEDIIKLLKELNIPVESAG [r5_486_TrMRF] | 2.07 ± 0.099 kcal/mol | 2.09 ± 0.16 kcal/mol | 2.11 ± 0.024 kcal/mol |
| SAGGSAGGSAAITIEVKPGETVTITLEIEVELPPGARAADGRTFKPGEKVRVTVTLTLRVEPSAGGSAGGSA [r18_450_TrROS_Hall] | 4.26 ± 0.22 kcal/mol | 3.72 ± 0.21 kcal/mol | 4.21 ± 0.27 kcal/mol |
| SAGMDIIKELLEKNPKPKVIRMHMNPPNGYFRIQVNGKPIDLPLPPGHYEMEFVVDPKGKIEDVKPHPMSAG [r5_329_TrROS] | 0.462 ± 0.16 kcal/mol | 0.0656 ± 0.15 kcal/mol | 0.51 ± 0.16 kcal/mol |
| SAGGSAGGPEVYPVPGLTPEQFRELVERHGGRLRVVLPGGEEVELDFTRDSRPIPGKPAVVVFGSAGGSAGG [r6_303_TrMRF] | 0.12 ± 0.048 kcal/mol | 0.498 ± 0.019 kcal/mol | -0.544 ± 0.12 kcal/mol |
| SWVEIPPDKIKDLMNRFQNGDWEEIVDLLKDLGFKNVTIEPQRNNGQRYFTIWVEHPDGPVIIEMPPSDISA [r9_783_TrROS] | 2.72 ± 0.097 kcal/mol | 2.39 ± 0.082 kcal/mol | 2.87 ± 0.044 kcal/mol |
| SAGGKTLVIKMKFKTKEEAEEAIKKLLEELGLPEGAKIEVTVERDENGELTVTITITVKDPEVLKALSAGGS [r8_85_TrROS_Hall] | 2.48 ± 0.076 kcal/mol | 2 ± 0.11 kcal/mol | 2.66 ± 0.036 kcal/mol |
| SAGGSAGGAPILPEVKKIGFEKLPNGEYKVTIYVKGGKKLAEITFPPNTTIEQAVEDAIEALKSSAGGSAGG [r6_435_TrMRF] | 2.28 ± 0.091 kcal/mol | 2.3 ± 0.063 kcal/mol | 2.38 ± 0.048 kcal/mol |
| SAGGSAGGMSIKVEVPGPYTVKIYRPDGKPIGEIEGEPGSVIEIDLNVPPGEAKNLIIEVYPTDSAGGSAGG [r6_471_TrMRF] | 2.2 ± 0.24 kcal/mol | 1.61 ± 0.074 kcal/mol | 2.58 ± 0.067 kcal/mol |
| SAGGSAGGSAGNIMILNKDGKIIAEIKIEEKYEIDKDGKIKKTKKIEIKIVPVPPGEKIKSAGGSAGGSAGG [r17_480_TrROS_Hall] | 1.25 ± 0.29 kcal/mol | 0.867 ± 0.056 kcal/mol | 1.94 ± 0.11 kcal/mol |
| SAGGSAGGMVEEIIEEFKKKGYNPEVEVRKTSPETTVVTLKLPDKEVIVEVKPLTPEELEEILRSAGGSAGG [r6_786_JUSTAS] | 0.824 ± 0.15 kcal/mol | 0.371 ± 0.052 kcal/mol | 1.05 ± 0.089 kcal/mol |
| SAGGSAGGSAGGSMSVVVTVKDPRTGSTTTVTVSPAEVEEAIEEAKKKGYSVVTVSEGGSAGGSAGGSAGGS [r4_102_JUSTAS] | 1.68 ± 0.085 kcal/mol | 1.84 ± 0.1 kcal/mol | 1.43 ± 0.024 kcal/mol |
| SAGGSAGGSAGGSKKIKIKVPPGARVRLKNGKWFSVEDIEKLKELGIKEIEIEKLPPKKSAGGSAGGSAGGS [r4_47_TrROS_Hall] | 0.999 ± 0.081 kcal/mol | 0.669 ± 0.037 kcal/mol | 1.13 ± 0.09 kcal/mol |
| SAGGSASIPEKIAEELKEKYGVTEIKILSVDPNGIIKVELKSIEKNEGKLIEKTYKVTVKVPKNLLSAGGSA [r15_646_JUSTAS] | 2.14 ± 0.078 kcal/mol | 1.86 ± 0.071 kcal/mol | 2.23 ± 0.034 kcal/mol |
